Laboratory results as given in IntAct's records for PubMed 23685356.

B1: Homeobox-containing protein 1 (Homo sapiens), Q6NT76 (parent)
chain: MLSSFPVVLLETMSHYTDEPRFTIEQIDLLQRLRRTGMTKHEILHALETLDRLDQEHSDKFGRRSSYGGSSYGNSTNNVPASSSTATASTQTQHSGMSPSPSNSYDTSPQPCTTNQNGRENNERLSTSNGKMSPTRYHANSMGQRSYSFEASEEDLDVDDKVEELMRRDSSVIKEEIKAFLANRRISQAVVAQVTGISQSRISHWLLQQGSDLSEQKKRAFYRWYQLEKTNPGATLSMRPAPIPIEDPEWRQTPPPVSATSGTFRLRRGSRFTWRKECLAVMESYFNENQYPDEAKREEIANACNAVIQKPGKKLSDLERVTSLKVYNWFANRRKEIKRRANIEAAILESHGIDVQSPGGHSNSDDVDGNDYSEQDDSTSHSDHQDPISLAVEMAAVNHTILALARQGANEIKTEALDDD
partner: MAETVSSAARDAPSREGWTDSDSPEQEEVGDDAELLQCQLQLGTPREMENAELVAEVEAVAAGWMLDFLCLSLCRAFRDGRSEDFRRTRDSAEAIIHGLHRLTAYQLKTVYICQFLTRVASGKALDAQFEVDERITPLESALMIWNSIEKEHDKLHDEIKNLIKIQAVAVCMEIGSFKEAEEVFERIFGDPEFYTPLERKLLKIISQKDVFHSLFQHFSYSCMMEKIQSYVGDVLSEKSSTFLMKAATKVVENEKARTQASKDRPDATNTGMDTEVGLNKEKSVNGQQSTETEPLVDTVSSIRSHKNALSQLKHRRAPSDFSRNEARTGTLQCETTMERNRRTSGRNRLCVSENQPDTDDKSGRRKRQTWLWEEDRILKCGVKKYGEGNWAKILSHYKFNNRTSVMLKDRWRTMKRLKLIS

Variants of: B1
Conditions: with terf1_mouse Terf1, P70371

Row | Variant | effect of a mutation on the interaction
1 | R339A | disrupting interaction
